{"source": "paper PMC4609965", "about": "(2015)", "target": "alpha-synuclein (Homo sapiens, UniProt P37840)", "assay": "NMR PRE titration", "data": [{"binder": "EGESYEDPPQEEYQEYEPEA", "note": "[beta-synuclein 115-134]", "values": [{"measurement": "Kd", "result": "~100", "unit": "µM"}]}, {"binder": "YEMPSEEGYQDYEPEA", "note": "[alpha-synuclein 125-140]", "values": [{"measurement": "Kd", "result": "~500", "unit": "µM"}]}]}
